Test results as given in PMC2914677, “Characterisation of recombinant pyranose oxidase from the cultivated mycorrhizal basidiomycete Lyophyllum shimeji (hon-shimeji)” (Microbial Cell Factories, 2010).

Legend:
[1] = target: T1, TmP2Ox (Trametes ochracea, UniProt Q7ZA32); experiment: absorbance at […] nm; type: biochemical; conditions: apparent; electron acceptor, 100 mM D-glucose, oxygen removed with nitrogen, pH 6.5, 30°C, 50 mM potassium phosphate; used as PF6 salt
T1 construct: gene p2o; C-terminal His6 tag kept, pET21-d(+), E. coli BL21(DE3), IMAC

[2] = target: T2, PcP2Ox (Phanerodontia chrysosporium, UniProt Q6QWR1); experiment: absorbance at […] nm; type: biochemical; conditions: apparent; electron acceptor, 100 mM D-glucose, oxygen removed with nitrogen, pH 6.5, 30°C, 50 mM potassium phosphate; used as PF6 salt
T2 construct: gene p2ox; C-terminal His6 tag kept, pET21-a(+), E. coli BL21(DE3), IMAC
T2 sequence (Q6QWR1 whole entry): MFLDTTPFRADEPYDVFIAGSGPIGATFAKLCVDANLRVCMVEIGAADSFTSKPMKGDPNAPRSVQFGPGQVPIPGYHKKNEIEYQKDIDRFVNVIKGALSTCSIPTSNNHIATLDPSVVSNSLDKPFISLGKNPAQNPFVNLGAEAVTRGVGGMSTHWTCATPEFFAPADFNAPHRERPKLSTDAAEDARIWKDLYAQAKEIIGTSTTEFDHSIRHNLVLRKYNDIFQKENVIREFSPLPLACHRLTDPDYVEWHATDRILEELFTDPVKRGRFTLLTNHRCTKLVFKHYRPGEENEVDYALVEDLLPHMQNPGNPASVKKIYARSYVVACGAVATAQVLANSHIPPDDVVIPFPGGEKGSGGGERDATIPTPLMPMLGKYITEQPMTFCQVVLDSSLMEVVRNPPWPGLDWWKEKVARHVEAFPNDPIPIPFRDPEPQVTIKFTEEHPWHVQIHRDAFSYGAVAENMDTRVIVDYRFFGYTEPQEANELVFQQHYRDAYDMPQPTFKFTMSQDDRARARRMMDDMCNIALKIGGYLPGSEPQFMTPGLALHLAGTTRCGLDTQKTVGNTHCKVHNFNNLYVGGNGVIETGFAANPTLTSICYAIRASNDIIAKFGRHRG

[3] = target: T3, LsP2Ox (Lyophyllum shimeji, UniProt Q75ZP8); experiment: absorbance at […] nm; type: biochemical; conditions: apparent; electron acceptor, 100 mM D-glucose, oxygen removed with nitrogen, pH 6.5, 30°C, 50 mM potassium phosphate; used as PF6 salt
T3 construct: gene p2ox; full-length cDNA (ORF 1857 bp, 619 residues), C-terminal His6 tag kept, pET21a(+), E. coli Rosetta 2; purified by AIEX and preparative native PAGE; subunit 68,488 Da

[4] = tested on: O=C1C=CC(=O)C=C1; experiment: purified protein; conditions: apparent, electron acceptor, 100 mM D-glucose, oxygen removed with nitrogen, pH 6.5, 30°C, 50 mM potassium phosphate
[5] = tested on: O=C1C(Cl)=CC(=Nc2ccc(O)cc2)C=C1Cl; experiment: purified protein; conditions: apparent, electron acceptor, 100 mM D-glucose, oxygen removed with nitrogen, pH 6.5, 30°C, 50 mM potassium phosphate
[6] = substrate: O=C1C=CC(=O)C=C1; experiment: purified protein; type: biochemical, Lyophyllum shimeji; conditions: apparent, electron acceptor, 100 mM D-glucose, oxygen removed with nitrogen, pH 6.5, 30°C, 50 mM potassium phosphate
[7] = substrate: O=C1C(Cl)=CC(=Nc2ccc(O)cc2)C=C1Cl; experiment: purified protein; type: biochemical, Lyophyllum shimeji; conditions: apparent, electron acceptor, 100 mM D-glucose, oxygen removed with nitrogen, pH 6.5, 30°C, 50 mM potassium phosphate

With `C1=CCC=C1.C1=CCC=C1.[Fe+3]` [ferrocenium ion] the Km [1] was 507 µM, the Km [2] was 330 µM and the Km [3] was 187 µM.

In the case of TmP2Ox (Trametes ochracea), the Km [4] is reported as 253 µM, the kcat [4] is reported as 225 s⁻¹ and the kcat/Km [4] is reported as 895000 M⁻¹ s⁻¹. The Km [5] was 413 µM, the kcat [5] was 42 s⁻¹ and the kcat/Km [5] was 102000 M⁻¹ s⁻¹.

B1: LsP2Ox (Lyophyllum shimeji) (protein)
chain: MSLSTEQMLRDYPRSMQINGQIPKNAIHETYGNDGVDVFIAGSGPIGATYAKLCVEAGLRVVMVEIGAADSFYAVNAEEGTAVPYVPGYHKKNEIEFQKDIDRFVNVIKGALQQVSVPVRNQNVPTLDPGAWSAPPGSSAISNGKNPHQREFENLSAEAVTRGVGGMSTHWTCSTPRIHPPMESLPGIGRPKLSNDPAEDDKEWNELYSEAERLIGTSTKEFDESIRHTLVLRSLQDAYKDRQRIFRPLPLACHRLKNAPEYVEWHSAENLFHSIYNDDKQKKLFTLLTNHRCTRLALTGGYEKKIGAAEVRNLLATRNPSSQLDSYIMAKVYVLASGAIGNPQILYNSGFSGLQVTPRNDSLIPNLGRYITEQPMAFCQIVLRQEFVDSVRDDPYGLPWWKEAVAQHIAKNPTDALPIPFRDPEPQVTTPFTEEHPWHTQIHRDAFSYGAVGPEVDSRVIVDLRWFGATDPEANNLLVFQNDVQDGYSMPQPTFRYRPSTASNVRARKMMADMCEVASNLGGYLPTSPPQFMDPGLALHLAGTTRIGFDKATTVADNNSLVWDFANLYVAGNGTIRTGFGENPTLTSMCHAIKSARSIINTLKGGTDGKNTGEHRNL
notes: full-length cDNA (ORF 1857 bp, 619 residues), C-terminal His6 tag kept, pET21a(+), E. coli Rosetta 2; purified by AIEX and preparative native PAGE; subunit 68,488 Da
For B1, the Km [6] was 33 µM, the kcat [6] was 92.3 s⁻¹ and the kcat/Km [6] was 2.76e+06 M⁻¹ s⁻¹. The Km [7] was 187 µM, the kcat [7] was 67.3 s⁻¹ and the kcat/Km [7] was 361000 M⁻¹ s⁻¹.
